Molecules are shown by their SMILES.

The data set in a line: Radiochemical stability in stabilizing buffers (RP-HPLC). In kind it is physicochemical. The conditions noted are these: PBS, 0.37 MBq in 1 mL, 4 °C, 72 h. As to the method:
Briefly, 0.37 MBq of radiolabeled compounds were incubated with 1 mL of: A) PBS; B) ascorbic acid in 0.9% sodium chloride solution (40 mg/ml); and C) Selenomethionine (0.2 mg/ml) and ascorbic acid (40 mg/ml) in 0.9% sodium chloride solution at 4 °C for 24, 48 and 72 h. The stability of the radioconjugate at each time point was calculated based on the integration of the RP-HPLC chromatograms.
Peptide synthesis was performed using an automated solid-phase peptide synthesizer employing traditional Fmoc chemistry and using a Rink Amide resin. Briefly, the resin (100 µmol of the resin substituted peptide anchors) was deprotected using piperidine, resulting in the formation of a primary amine from which the C-terminus of the growing peptide was anchored.
The Fmoc protected amino acids (300 µmol) with appropriate orthogonal protection were activated with HBTU and sequentially added to the resin. […] All conjugate were peak purified to • 95% purity and quantified by RP-HPLC prior to in vitro/in vivo investigations. […]
The partition coefficient was determined for the 177Lu-labeled conjugate. […] Aliquots of 100 µL were taken from each layer and the radioactivity of each was quantified by a Ȗ-counter. […]

In the case of `CSCC[C@H](NC(=O)[C@H](CC(C)C)NC(=O)[C@H](Cc1c[nH]cn1)NC(=O)CNC(=O)[C@@H](NC(=O)[C@H](C)NC(=O)[C@H](Cc1c[nH]c2ccccc12)NC(=O)[C@H](CCC(N)=O)NC(=O)CCOCCOCCOCCOCCNC(=O)[C@@H](CO)NC(=O)[C@@H](CO)NC(=O)[C@@H](CO)NC(=O)[C@@H](CO)NC(=O)[C@@H](CO)NC(=O)CN1CCN(CC(=O)O)CCN(CC(=O)O)CCN(CC(=O)O)CC1)C(C)C)C(N)=O` [[^177Lu]Lu-DOTA-SP714, metal not drawn], the radiolytic degradation is on record as 39.9%.

(Values after paper PMC6668441, “Comparative Study of Subcutaneous and Orthotopic Mouse Models of Prostate Cancer: Vascular Perfusion, Vasculature Density, Hypoxic Burden and BB2r-Targeting Efficacy” (Scientific Reports, 2019).)
